# In US8067220B2, “Alternative crystal form of monoacylglycerol lipase (MGLL)” (Janssen Pharmaceutica N.V., priority 2008, dated 2011):
# Where a chain is given by its changes, count along the chain named. Numbers in names are those of the source.
# B1: mut-MGLL 9-303, L169S, L176S: N-terminally truncated human MGLL 9-303 with L169S, L176S (protein, UniProt Q99685 9-303, looked up, variant L169S L176S)
# chain: RTPQSIPYQDLPHLVNADGQYLFCRYWKPTGTPKALIFVSHGAGEHSGRYEELARMLMGLDLLVFAHDHVGHGQSEGERMVVSDFHVFVRDVLQHVDSMQKDYPGLPVFLLGHSMGGAIAILTAAERPGHFAGMVLISPLVLANPESATTFKVLAAKVLNSVLPNLSSGPIDSSVLSRNKTEVDIYNSDPLICRAGLKVCFGIQLLNAVSRVERALPKLTVPFLLLQGSADRLCDSKGAYLLMELAKSQDKTLKIYEGAYHVLHKELPEVTNSVFHEINMWVSQRTATAGTASPP
# B2: mut-MGLL 9-297, L169S, L176S: truncated human MGLL 9-297 with L169S, L176S (protein, UniProt Q99685 9-297, looked up, variant L169S L176S)
# chain: RTPQSIPYQDLPHLVNADGQYLFCRYWKPTGTPKALIFVSHGAGEHSGRYEELARMLMGLDLLVFAHDHVGHGQSEGERMVVSDFHVFVRDVLQHVDSMQKDYPGLPVFLLGHSMGGAIAILTAAERPGHFAGMVLISPLVLANPESATTFKVLAAKVLNSVLPNLSSGPIDSSVLSRNKTEVDIYNSDPLICRAGLKVCFGIQLLNAVSRVERALPKLTVPFLLLQGSADRLCDSKGAYLLMELAKSQDKTLKIYEGAYHVLHKELPEVTNSVFHEINMWVSQRTATA
# B3: mut-MGLL 1-303, L171Q: human MGLL 1-303 with cap-domain mutation L171Q (protein, UniProt Q99685 1-303, looked up, variant L171Q)
# Monoglyceride lipase: MPEESSPRRTPQSIPYQDLPHLVNADGQYLFCRYWKPTGTPKALIFVSHGAGEHSGRYEELARMLMGLDLLVFAHDHVGHGQSEGERMVVSDFHVFVRDVLQHVDSMQKDYPGLPVFLLGHSMGGAIAILTAAERPGHFAGMVLISPLVLANPESATTFKVLAAKVLNLVQPNLSLGPIDSSVLSRNKTEVDIYNSDPLICRAGLKVCFGIQLLNAVSRVERALPKLTVPFLLLQGSADRLCDSKGAYLLMELAKSQDKTLKIYEGAYHVLHKELPEVTNSVFHEINMWVSQRTATAGTASPP
# B4: mut-MGLL 1-303, L167Q, L171Q: human MGLL 1-303 with cap-domain mutations L167Q, L171Q (protein, UniProt Q99685 1-303, looked up, variant L167Q L171Q)
# Monoglyceride lipase: B3 Monoglyceride lipase with L167Q
# B5: mut-MGLL. 1-303, L167Q, L174Q: human MGLL 1-303 with cap-domain mutations L167Q, L174Q (protein, UniProt Q99685 1-303, looked up, variant L167Q L174Q)
# Monoglyceride lipase: B3 Monoglyceride lipase with L167Q, Q171L, L174Q
# B6: mut-MGLL 1-303, L171Q, L174Q: human MGLL 1-303 with cap-domain mutations L171Q, L174Q (protein, UniProt Q99685 1-303, looked up, variant L171Q L174Q)
# Monoglyceride lipase: B3 Monoglyceride lipase with L174Q
# B7: mut-MGLL 1-303, L169S, L176S, K36A: human MGLL 1-303 with cap mutations L169S, L176S and surface mutation K36A (protein)
# chain: GMPEESSPRRTPQSIPYQDLPHLVNADGQYLFCRYWAPTGTPKALIFVSHGAGEHSGRYEELARMLMGLDLLVFAHDHVGHGQSEGERMVVSDFHVFVRDVLQHVDSMQKDYPGLPVFLLGHSMGGAIAILTAAERPGHFAGMVLISPLVLANPESATTFKVLAAKVLNSVLPNLSSGPIDSSVLSRNKTEVDIYNSDPLICRAGLKVCFGIQLLNAVSRVERALPKLTVPFLLLQGSADRLCDSKGAYLLMELAKSQDKTLKIYEGAYHVLHKELPEVTNSVFHEINMWVSQRTATAGTASPP
# B8: mut-MGLL.1-303, L169S, L176S, K160A: human MGLL 1-303 with L169S, L176S and surface mutation K160A (protein)
# chain: B3 Monoglyceride lipase with K160A, L169S, Q171L, L176S
# B9: mut-MGLL.1-303, L169S, L176S, K165A: human MGLL 1-303 with L169S, L176S and surface mutation K165A (protein)
# chain: B3 Monoglyceride lipase with K165A, L169S, Q171L, L176S
# B10: mut-MGLL 1-303, L169S, L176S, K226A: human MGLL 1-303 with L169S, L176S and surface mutation K226A (protein)
# chain: B3 Monoglyceride lipase with L169S, Q171L, L176S, K226A
# B11: mut-MGLL 1-303, L169S, L176S, K36A, K226A: human MGLL 1-303 with L169S, L176S and surface mutations K36A, K226A (protein)
# chain: B3 Monoglyceride lipase with K36A, L169S, Q171L, L176S, K226A
# Test system: MGLL
# Experiment: Michaelis-Menten kinetics, hydrolysis of 4-methylcoumarin butyrate (4MC-B)
# Type: biochemical, human
# Conditions: substrate 4MC-B; 4-5 nM MGLL, 20 mM Pipes pH 7, 150 mM NaCl, 37° C.; average of 2 or 4 assays
# Excerpt: A small fluorescent substrate, 4-methyl coumarin butyrate (4MC-B) was used to compare the activity of the engineered mutants to the activity of wt-MGLL (hMGLL 1-303) (SEQ ID NO: 3). The catalytic efficiency (kcat/KM) for the hydrolysis of the 4MC-B was similar for wt-MGLL (hMGLL 1-303) (SEQ ID NO: 3) and all MGLL mutants tested (Table 2). A larger more aliphatic fluorescent substrate, Coumarin Arachidonate (C-A), structurally more closely related to the MGLL natural substrate, 2-AG, was used to compare the activity of wt-MGLL (hMGLL 1-303) (SEQ ID NO: 3) to TEV protease cleaved mut-MGLL (hMGLL 1-303 L169S, L176S) (SEQ ID NO: 5).
# The Michaelis-Menten parameters for the hydrolysis of 4-methylcoumarin butyrate (4MC-B) and coumarin arachidonate (C-A) substrate were determined using 4-5 nM of MGLL in 20 mM Pipes pH 7 and 150 mM NaCl at 37° C. The change in fluorescence due to substrate hydrolysis was monitored using excitation/emission wavelengths of 335/440 in a Safire II instrument from Tecan. The hyperbolic rates versus substrate concentration curves for the hydrolysis of 4MC-B were fit to the Michaelis-Menten equation using Excel.
Molecule,Kcat,Km
B1,0.45 s⁻¹,88 µM
B2,0.433 s⁻¹,126 µM
B3,0.85 s⁻¹,105 µM
B4,0.983 s⁻¹,84 µM
B5,1.17 s⁻¹,84 µM
B6,0.783 s⁻¹,89 µM
B7,0.85 s⁻¹,124 µM
B8,0.5 s⁻¹,90 µM
B9,0.45 s⁻¹,137 µM
B10,0.633 s⁻¹,110 µM
B11,0.5 s⁻¹,123 µM
